{
  "source": "paper PMC10198558",
  "about": "“CryoEM structure of a post-assembly MS-ring reveals plasticity in stoichiometry and conformation” (PLOS ONE, 2023)",
  "proteins": {"B1": {"name": "FliF (subunit of the flagellar MS-ring) (natural protein)", "chain": "MSATASTATQPKPLEWLNRLRANPRIPLIVAGSAAVAIVVAMVLWAKTPDYRTLFSNLSDQDGGAIVAQLTQMNIPYRFANGSGAIEVPADKVHELRLRLAQQGLPKGGAVGFELLDQEKFGISQFSEQVNYQRALEGELARTIETLGPVKSARVHLAMPKPSLFVREQKSPSASVTVTLEPGRALDEGQISAVVHLVSSAVAGLPPGNVTLVDQSGHLLTQSNTSGRDLNDAQLKFANDVESRIQRRIEAILSPIVGNGNVHAQVTAQLDFANKEQTEEHYSPNGDASKATLRSRQLNISEQVGAGYPGGVPGALSNQPAPPNEAPIATPPTNQQNAQNTPQTSTSTNSNSAGPRSTQRNETSNYEVDRTIRHTKMNVGDIERLSVAVVVNYKTLADGKPLPLTADQMKQIEDLTREAMGFSDKRGDTLNVVNSPFSAVDNTGGELPFWQQQSFIDQLLAAGRWLLVLVVAWILWRKAVRPQLTRRVEEAKAAQEQAQVRQETEEAVEVRLSKDEQLQQRRANQRLGAEVMSQRIREMSDNDPRVVALVIRQWMSNDHE", "notes": "FliF, flagellar M-ring protein, Salmonella enterica serovar typhimurium; Homo-oligomeric ring; 33 subunits is the most common stoichiometry (~80% of particles), 34 ~15%, 32 ~5%; No tag is mentioned; The built models cover only residues 228-438 (RBM3 and beta-collar, PDB 8FTF) and Gln-125 to Gly-227 (RBM2 inner, PDB 8FTE); also called post-assembly MS-ring; FliF protomer; source: E. coli …"}},
  "target": "the molecule itself",
  "experiment": "cryo-EM structure; purified MS-rings (0.5 mg/ml) in 50 mM Tris-HCl pH 7.5, 100 mM NaCl, 0.1% LDAO on graphene oxide grids, no crosslinking; subunits counted in en-face 2D class averages without rotational symmetry averaging; 3D maps with C32, C33, C34 (RBM3), C21, C22 (RBM2 inner) and C11 symmetry",
  "note": "Where “and” joins values, the source holds several entries; their conditions need not be identical. Identical values can stand only once.",
  "data": [
    {"protein": "B1", "values": [
      {"measurement": "stoichiometry N", "value": "32 subunits and 33 subunits and 34 subunits"}
    ]}
  ]
}
